Five substances from article doi:10.1101/379156 can be followed below.

Usually stoichiometry N stands for the number of molecules, sites or subunits per partner or assembly.

Test in all cases: SEC
(Size exclusion chromatography separates by hydrodynamic size, large species first.)

For experiment [1], the target named is mFAS alpha-module, construct 22 (KS-MAT-ACP-TE, mFAS sequences only) (Mus musculus).
Experiment [2] deals with bimodular construct 25 (MAT-ACP didomain fused to full-length mFAS) (Mus musculus) (UniProt P19096).
The target in experiment [3] is murine fatty acid synthase (mFAS) (Mus musculus) (UniProt P19096). The note with it: remark: other sources report otherwise.
In experiment [4] the target is mFAS delta-module, construct 6 (2-2195) (Mus musculus) (UniProt P19096).
The target in experiment [5] is mFAS alpha-module, construct 17 (KS-MAT-ACP, mFAS sequences only) (Mus musculus).

As for “mFAS alpha-module, construct 22 (KS-MAT-ACP-TE, mFAS sequences only) (domain or fragment)”, in experiment [1], the stoichiometry N amounted to 2.
Regarding “bimodular construct 25 (MAT-ACP didomain fused to full-length mFAS) (from UniProt P19096 1-2504)”, the stoichiometry N in experiment [2] is 2.
For “murine fatty acid synthase (mFAS), P19096 1-2504”, the stoichiometry N in experiment [3] was found to be 2.
“mFAS delta-module, construct 6 (2-2195), P19096 2-2195” yielded a stoichiometry N in experiment [4] of 2.
In experiment [5], “mFAS alpha-module, construct 17 (KS-MAT-ACP, mFAS sequences only) (domain or fragment)” gave a stoichiometry N of 2.
